Experimental data as given in IntAct's records for PubMed 17380122.

B1: Regulator of G-protein signaling 12 (Mus musculus), Q8CGE9 (parent)
chain: MYRAGEPGKRQPGPAPPRVRSVEVARGRAGYGFTLSGQAPCVLSCVMRGSPADFVGLRAGDQILAINEINVKKASHEDVVKLIGKCSGVLHMVIAEGTSHVESCSSDEEGGLYEGKGWLRPKLDSKALGINRAERVVEEVQSGGIFNMIFESSSLCASGPEPLKLKQRSLSESAALRLDAGQAGLCAPHPSMLSKEDISKVINDDSVFTVGLDSHDDFGLDASILNVAMVVGYLGSIELPSTSSNLEHDSLQAIRGCMRRLRAEQKIHSLVTMKVMHDCVQLVTDRAGVVAEYPAEKLAFSAVCPDDRRFFGLVTMQTNDDGGLAQEDEGALRTSCHVFMVDPDLFHHKIHQGIARRFGFACTADPDTSGCLEFPASSLPVLQFISVLYRDMGELIEGVRARAFLDGDADAHQNNSTSSNSDSGIGNFNQEEKSNRVLVVDLGGGSSRHGQGSSPGWESGGGRGSQPWSAPWNGAFCHDSEAGSPLETSPNTDRFWDLTKHSGPVSHMEVPPATLRSSIPPSKRGAAGSSCGFNQRWLPVHVLQEWQCGHASDQESYTDSTDGWSSVNCGTLPPPMSKIPADRYRVEGSFAQAPLSTQKRDWSRKAFGMQNLFGPHRNVRKTKEDKKSSKLGRGVALAQTSQRTSARRSFGRSRRFSITRSLDDLESATVSDGELTGADLKDCISNNSLSSNASLPSVQSCRRLRERRVASWAVSFERLLQDPVGVRYFSDFLRKEFSEENILFWQACECFSHVPAHDKKELSYRAREIFSKFLCSKATTPVNIDSQAQLADDILNAPHPDMFKEQQLQIFNLMKFDSYTRFLKSQLYQECVLAEVEGRTLPDSQQVPSSPASKHSISSDHSNVSTPKKLSGKSKSGRSLNEDVGEEDSEKKRRGAFFSWSRSRSTGRSQKKKDHGDHAHDAPHANGGLCRRESQGSVSSAGSLDLSEACRTSALEKDKAAKHCCVHLPDGTSCVVAVKSGFSIKEILSGLCERHGINGAAVDLFLVGGDKPLVLHQDSSILATRDLRLEKRTLFRLDLVPINRSVGLKAKPTKPVTEVLRPVVAKYGLDLGSLLVRLSGEKEPLDLGAPISSLDGQRVILEERDPSRGKVSTDKQKGAPVKQNSAVNSSPRNHLAMGEERTLGKSNSIKIRGENGKSARDPRLSKREESIAKIGKKKYQKINLDEAEEFFELISKAQSNRADDQRGLLRKEDLVLPEFLRLPAGSSELALSSPPPVKGYSKRAVTGHGQEGAAQTEESYSDSPATSPASAQSPCSAYSPGSAHSPGSAHSTPGPPGTTQPGEKPTKPSCVSMVQEGTTQAWRRLSPEMEAGGIQTVEDEQVADLTLMGEGDISSPNSTLLPPPPTPQDTPGPPRPGTSRF

Variants of: B1
Details: with rash_rat Hras
With H995L the “effect of a mutation on the interaction” value was “decreasing interaction”.

Variants of: B1
Details: with rasn_rat Nras
In the case of H995L, the “effect of a mutation on the interaction” value is reported as “decreasing interaction”.
